The source of these data is article PMC5549943.

Where “and” joins values, the source holds several entries; their conditions need not be identical. Equal values may be shown once.

For this experiment, the target named is Hepatitis B Virus core protein Cp149 dimer (Hepatitis B Virus). Nature of the experiment: resistive-pulse sensing.

The stoichiometry N is a count of units in the complex or per binding partner. For “Hepatitis B Virus core protein Cp149 dimer (domain or fragment)”, the stoichiometry N was 90 dimers and 120 dimers.
